Reference: PMC2172336

Target: Kss1-7m3-GBD (Kss1-7m3 fused to the Gal4 DNA-binding domain) (S. cerevisiae) (UniProt P14681)
Assay: two-hybrid

Kss1-7m3-GBD (Kss1-7m3 fused to the Gal4 DNA-binding domain) (S. cerevisiae), sequence (P14681 whole entry, the tested form may be a part): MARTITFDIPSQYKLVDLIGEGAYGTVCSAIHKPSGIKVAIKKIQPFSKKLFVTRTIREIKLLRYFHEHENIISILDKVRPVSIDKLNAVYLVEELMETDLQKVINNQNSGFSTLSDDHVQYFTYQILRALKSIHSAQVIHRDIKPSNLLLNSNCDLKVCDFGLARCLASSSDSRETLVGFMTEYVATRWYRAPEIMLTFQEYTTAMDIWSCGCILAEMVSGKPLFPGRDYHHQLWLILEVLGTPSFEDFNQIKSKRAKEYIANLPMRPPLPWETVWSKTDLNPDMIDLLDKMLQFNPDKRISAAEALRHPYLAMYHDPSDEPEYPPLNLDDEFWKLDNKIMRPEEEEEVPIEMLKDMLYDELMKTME

fold above background (two-hybrid reporter): 6 fold
B1: Ste12-GAD (Ste12 fused to the Gal4 transcriptional activation domain) (natural protein)
chain: MKVQITNSRTEEILKVQANNENDEVSKATPGEVEESLRLIGDLKFFLATAPVNWQENQIIRRYYLNSGQGFVSCVFWNNLYYITGTDIVKCCLYRMQKFGREVVQKKKFEEGIFSDLRNLKCGIDATLEQPKSEFLSFLFRNMCLKTQKKQKVFFWFSVAHDKLFADALERDLKRESLNQPSTTKPVNEPALSFSYDSSSDKPLYDQLLQHLDSRRPSSTTKSDNSPPKLESENFKDNELVTVTNQPLLGVGLMDDDAPESPSQINDFIPQKLIIEPNTLELNGLTEETPHDLPKNTAKGRDEEDFPLDYFPVSVEYPTEENAFDPFPPQAFTPAAPSMPISYDNVNERDSMPVNSLLNRYPYQLSVAPTFPVPPSSSRQHFMTNRDFYSSNNNKEKLVSPSDPTSYMKYDEPVMDFDESRPNENCTNAKSHNSGQQTKQHQLYSNNFQQSYPNGMVPGYYPKMPYNPMGGDPLLDQAFYGADDFFFPPEGCDNNMLYPQTATSWNVLPPQAMQPAPTYVGRPYTPNYRSTPGSAMFPYMQSSNSMQWNTAVSPYSSRAPSTTAKNYPPSTFYSQNINQYPRRRTVGMKSSQGNVPTGNKQSVGKSAKISKPLHIKTSAYQKQYKINLETKARPSAGDEDSAHPDKNKEISMPTPDSNTLVVQSEEGGAHSLEVDTNRRSDKNLPDAT
